Data as given in US20260242478A1 (published 2026).
Where no end group is shown, it is not given here.

Tests used:
PSMA Fab [1] = target: T1, PSMA Fab; assay: phage binding ELISA; biotinylated PSMA Fab on neutravidin plate, clonal phage supernatant, anti-M13 HRP detection; column read as anti-PSMA Fab without PSMA antigen
T1 construct: also called Anti-PSMA Fab; 006 PSMA Fab
Experimental: (§1) Clonal phage were harvested as crude supernatants and screened via standard ELISAs. […] Prior to the addition of clonal phage. wells were incubated with blocking buffer and PSMA antigen or blocking buffer alone. Without washing or aspirating, clonal phage supernatants were then added to the wells and incubated for a short time. Wells were then washed followed by detection of bound phage using a horse radish conjugated anti-M13 antibody.

PSMA Fab [2] = target: T1, PSMA Fab; assay: phage binding ELISA; biotinylated PSMA Fab on neutravidin plate, clonal phage supernatant, anti-M13 HRP detection; column read as anti-PSMA Fab pre-incubated with PSMA antigen as competitor
Experimental: as §1

PSMA Fab [3] = target: T2, PSMA Fab; assay: clonal phage ELISA on biotinylated PSMA Fab captured on neutravidin plates, anti-M13-HRP detection; blocking buffer alone
T2 construct: Biotinylated and captured on neutravidin plates in the phage ELISA; also called Anti-PSMA Fab; 006 PSMA Fab
Experimental: as §1

PSMA Fab (006 PSMA Fab) [4] = target: T3, PSMA Fab (006 PSMA Fab) (biotinylated (site not given)); assay: clonal phage ELISA; biotinylated PSMA Fab on neutravidin plate, blocking buffer alone; anti-M13 HRP detection;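 also: crude clonal phage supernatants added without washing to wells pretreated with blocking buffer with or without PSMA antigen, short incubation, then washed before detecting bound phage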
T3 construct: also called Anti-PSMA Fab; anti-PSMA Fab

PSMA Fab (006 PSMA Fab) [5] = target: T3, PSMA Fab (006 PSMA Fab); assay: clonal phage ELISA; biotinylated PSMA Fab on neutravidin plate, wells pre-incubated with PSMA antigen as competitor; anti-M13 HRP detection;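 also: crude clonal phage supernatants added to antigen-treated wells without a wash, incubated briefly, then bound phage read out via horse radish–conjugated anti-M13 antibody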
Experimental: as §1

Row | Binder | phage binding ELISA signal (PSMA Fab [1]) | phage binding ELISA signal (PSMA Fab [2]) | Phage binding ELISA signal, Anti-PSMA Fab (PSMA Fab [3]) | other results
1 | ETKLCKPMWMCALL (cysteine pairing not given here; also: displayed on phage as pIII fusion) [Phage-2602] | 1.03 | 0.126 |  | 
2 | LVKWCVPDWMCQET [Phage-2598] | 1.04 | 0.0671 |  | 
3 | IVKWCTPHWMCSGW (cysteine pairing not given here; also: fused to phage pIII, linker and fusion site not given here, Clonal phage of the Peptide-180 library, tested as crude supernatant; not shown: pIII coat protein of the bacteriophage to which the peptide is fused) [Phage-2529] |  |  | 1.17 | 
4 | HFNWCTPSWMCDVL [Phage-2592] | 1.05 | 0.118 |  | 
5 | MPRWCTPAWMCEAI [Phage-2590] | 1.05 | 0.063 |  | 
6 | VLNWCTPPWMCLGI [Phage-2589] | 1.06 | 0.107 |  | 
7 | PVPLCRPPWMCQSV (cysteine pairing not given here; also: fused to phage pIII, linker and fusion site not given here, Clonal phage of the Peptide-180 library, tested as crude supernatant; not shown: pIII coat protein of the bacteriophage to which the peptide is fused) [Phage-2533] |  |  | 1.16 | 
8 | YEKWCIPRWMCEAN (cysteine pairing not given here; also: fused to phage pIII, linker and fusion site not given here, Clonal phage of the Peptide-180 library, tested as crude supernatant; not shown: pIII coat protein of the bacteriophage to which the peptide is fused) [Phage-2531] |  |  | 1.16 | 
9 | VSPKCIPPWMCSYV (cysteine pairing not given here; also: fused to phage pIII, linker and fusion site not given here, Clonal phage of the Peptide-180 library, tested as crude supernatant; not shown: pIII coat protein of the bacteriophage to which the peptide is fused) [Phage-2536] |  |  | 1.16 | 
10 | WAKWCTPVWMCQGI (cysteine pairing not given here; also: displayed on phage pIII, linker not given here, Clonal phage of the Peptide-180 library, tested as crude phage supernatant; not shown: pIII filament protein of the bacteriophage) [Phage-2638] |  |  |  | Phage binding ELISA signal, Anti-PSMA Fab (PSMA Fab (006 PSMA Fab) [4]): 0.961; Phage binding ELISA signal, Anti-PSMA Fab with PSMA antigen (PSMA Fab (006 PSMA Fab) [5]): 0.136
11 | EMKWCTPEWMCIGL (cysteine pairing not given here; also: fused to phage pIII, linker and fusion site not given here, Clonal phage of the Peptide-180 library, tested as crude supernatant; not shown: pIII coat protein of the bacteriophage to which the peptide is fused) [Phage-2540] |  |  | 1.15 | 
12 | MIGWCTPSWMCSGF [Phage-2588] | 1.06 | 0.0716 |  | 
13 | MVKWCTPPWMCNFE [Phage-2595] | 1.05 | 0.121 |  | 
14 | TVKWCTPPWMCEES (cysteine pairing not given here; also: displayed on phage pIII, linker not given here, Clonal phage of the Peptide-180 library, tested as crude phage supernatant; not shown: pIII filament protein of the bacteriophage) [Phage-2637] |  |  |  | Phage binding ELISA signal, Anti-PSMA Fab (PSMA Fab (006 PSMA Fab) [4]): 0.964; Phage binding ELISA signal, Anti-PSMA Fab with PSMA antigen (PSMA Fab (006 PSMA Fab) [5]): 0.0943
15 | VTHWCIPEWMCVVE (cysteine pairing not given here; also: fused to phage pIII, linker and fusion site not given here, Clonal phage of the Peptide-180 library, tested as crude supernatant; not shown: pIII coat protein of the bacteriophage to which the peptide is fused) [Phage-2530] |  |  | 1.17 | 
16 | GMKWCTPEWMCQIV [Phage-2603] | 1.03 | 0.28 |  | 
17 | SVTWCIPPWMCELS [Phage-2600] | 1.04 | 0.0673 |  | 
18 | EMKWCIPQWMCADS (cysteine pairing not given here; also: fused to phage pIII, linker and fusion site not given here, Clonal phage of the Peptide-180 library, tested as crude supernatant; not shown: pIII coat protein of the bacteriophage to which the peptide is fused) [Phage-2537] |  |  | 1.16 | 
19 | PTKWCIPEWMCVES (cysteine pairing not given here; also: fused to phage pIII, linker and fusion site not given here, Clonal phage of the Peptide-180 library, tested as crude supernatant; not shown: pIII coat protein of the bacteriophage to which the peptide is fused) [Phage-2541] |  |  | 1.15 | 

Row | Binder | phage binding ELISA signal (PSMA Fab [1]) | phage binding ELISA signal (PSMA Fab [2]) | Phage binding ELISA signal, Anti-PSMA Fab (PSMA Fab [3]) | other results
20 | DWKWCTPAWMCSTE (cysteine pairing not given here; also: fused to phage pIII, linker and fusion site not given here, Clonal phage of the Peptide-180 library, tested as crude supernatant; not shown: pIII coat protein of the bacteriophage to which the peptide is fused) [Phage-2535] |  |  | 1.16 | 
21 | VPKWCTPEWMCIIH (cysteine pairing not given here; also: displayed on phage pIII, linker not given here, Clonal phage of the Peptide-180 library, tested as crude phage supernatant; not shown: pIII filament protein of the bacteriophage) [Phage-2640] |  |  |  | Phage binding ELISA signal, Anti-PSMA Fab (PSMA Fab (006 PSMA Fab) [4]): 0.958; Phage binding ELISA signal, Anti-PSMA Fab with PSMA antigen (PSMA Fab (006 PSMA Fab) [5]): 0.0705
22 | LMNWCIPSWMCDVE (cysteine pairing not given here; also: fused to phage pIII, linker and fusion site not given here, Clonal phage of the Peptide-180 library, tested as crude supernatant; not shown: pIII coat protein of the bacteriophage to which the peptide is fused) [Phage-2539] |  |  | 1.15 | 
23 | EPKWCVPPWMCAYD (cysteine pairing not given here; also: fused to phage pIII, linker and fusion site not given here, Clonal phage of the Peptide-180 library, tested as crude supernatant; not shown: pIII coat protein of the bacteriophage to which the peptide is fused) [Phage-2538] |  |  | 1.16 | 
24 | HPQLCIPSWMCNVW [Phage-2594] | 1.05 | 0.105 |  | 
25 | LSKWCIPDWMCISS [Phage-2599] | 1.04 | 0.0618 |  | 
26 | MFKWCTPSWMCERV [Phage-2596] | 1.05 | 0.176 |  | 
27 | VPKWCIPVWMCEVM (cysteine pairing not given here; also: fused to phage pIII, linker and fusion site not given here, Clonal phage of the Peptide-180 library, tested as crude supernatant; not shown: pIII coat protein of the bacteriophage to which the peptide is fused) [Phage-2534] |  |  | 1.16 | 
28 | TDKLCRPPWMCELM (cysteine pairing not given here; also: displayed on phage pIII, linker not given here, Clonal phage of the Peptide-180 library, tested as crude phage supernatant; not shown: pIII filament protein of the bacteriophage) [Phage-2634] |  |  |  | Phage binding ELISA signal, Anti-PSMA Fab (PSMA Fab (006 PSMA Fab) [4]): 0.966; Phage binding ELISA signal, Anti-PSMA Fab with PSMA antigen (PSMA Fab (006 PSMA Fab) [5]): 0.065
29 | VGNWCTPMWMCQAF (cysteine pairing not given here; also: displayed on phage pIII, linker not given here, Clonal phage of the Peptide-180 library, tested as crude phage supernatant; not shown: pIII filament protein of the bacteriophage) [Phage-2639] |  |  |  | Phage binding ELISA signal, Anti-PSMA Fab (PSMA Fab (006 PSMA Fab) [4]): 0.961; Phage binding ELISA signal, Anti-PSMA Fab with PSMA antigen (PSMA Fab (006 PSMA Fab) [5]): 0.0864
30 | DMKWCTPAWMCQSS (cysteine pairing not given here; also: displayed on phage pIII, linker not given here, Clonal phage of the Peptide-180 library, tested as crude phage supernatant; not shown: pIII filament protein of the bacteriophage) [Phage-2635] |  |  |  | Phage binding ELISA signal, Anti-PSMA Fab (PSMA Fab (006 PSMA Fab) [4]): 0.966; Phage binding ELISA signal, Anti-PSMA Fab with PSMA antigen (PSMA Fab (006 PSMA Fab) [5]): 0.0701
31 | TDKWCVPEWMCMEF [Phage-2591] | 1.05 | 0.0773 |  | 
32 | DLKWCFPDWMCQVG (cysteine pairing not given here; also: fused to phage pIII, linker and fusion site not given here, Clonal phage of the Peptide-180 library, tested as crude supernatant; not shown: pIII coat protein of the bacteriophage to which the peptide is fused) [Phage-2542] |  |  | 1.15 | 
33 | IEKWCMPSWMCEWN [Phage-2601] | 1.03 | 0.0609 |  | 
34 | EHRWCIPVWMCEKS (cysteine pairing not given here; also: fused to phage pIII, linker and fusion site not given here, Clonal phage of the Peptide-180 library, tested as crude supernatant; not shown: pIII coat protein of the bacteriophage to which the peptide is fused) [Phage-2532] |  |  | 1.16 | 
35 | DDRWCIPTWMCFLD (cysteine pairing not given here; also: displayed on phage pIII, linker not given here, Clonal phage of the Peptide-180 library, tested as crude phage supernatant; not shown: pIII filament protein of the bacteriophage) [Phage-2636] |  |  |  | Phage binding ELISA signal, Anti-PSMA Fab (PSMA Fab (006 PSMA Fab) [4]): 0.965; Phage binding ELISA signal, Anti-PSMA Fab with PSMA antigen (PSMA Fab (006 PSMA Fab) [5]): 0.0733
36 | DGIWCTPRWMCEGM [Phage-2593] | 1.05 | 0.0865 |  | 
37 | VHKWCTPAWMCEVH [Phage-2597] | 1.04 | 0.0662 |  | 
